Assay results: the supplement of paper PMC7877785
± gives the uncertainty stated by the source.

Experiment: self-splicing fitness, log relative to wild type (ln ratio); higher = more splicing; Tetrahymena group I intron in knt gene, E. coli kanamycin selection, DiMSum; sequences stand for … in CUCUCU…GGAGGGAAAAGUUAUCAGGCAUGCACCUGGUAGCUAGUCUUUAAACCAAUAGAUUGCAUCGGUUUAAAAGGCAAGACCGUCAAAUUGCGGGAAAGGGGUCAACAGCCGUUCAGUACCAAGUCUCAGGGGAAACUUUGAGAUGGCCUUGCAAAGGGUAUGGUAAUAAGCUGACGGACAUGGUCCUAACCACGCAGCCAAGUCCUAAGUCAACAGAUCUUCUGUUGAUAUGGAUGCAGUUCACAGACUAAAUGUCGGUCGGGGAAGAUGUAUUCUUCUCAUAAGAUAUAGUCGGACCUCUCCUUAAUGGGAGCUAGCGGAUGAAGUGAUGCAACACUGGAGCCGCUGGGAACUAAUUUGUAUGCGAAAGUAUAUUGAUUAGUUUUGGAGUACUCGUGGUCG
Procedure, shortened: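 Fitness was computed with DiMSum as the error-weighted combination of replicate fold changes, kanamycin versus none, each normalised to wild type. The library randomised all eight intron nucleotides of the P1ex region, with the intron placed in the knt kanamycin-resistance gene on pET-22b(+) in E. coli BL21(DE3). Six replicate transformations were grown overnight at 37°C or 30°C on LB agar with or without 25 μg/mL kanamycin, plus 100 μg/mL carbenicillin, 50 μM IPTG and 0.2% rhamnose. Pooled colonies were amplicon-sequenced on an Illumina HiSeq 2500.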

Row | Sequence | self-splicing fitness (ln) (30 °C) | self-splicing fitness (ln) (37 °C)
1 | GUGCAGCAAUAUUACGUAUA | -1.42 ± 0.073 | 0.0392 ± 0.069
2 | UACGAGCAAUAUUACGUUUC | -2.65 ± 0.32 | -1.69 ± 0.24
3 | GGCCAGCAAUAUUACGCAAC | -1.19 ± 0.1 | -0.97 ± 0.12
4 | GGUUAGCAAUAUUACGAUUA | -0.191 ± 0.13 | 0.0365 ± 0.12
5 | GCAGAGCAAUAUUACGACAU | -3.172 ± 0.023 | -2.06 ± 0.037
6 | UCGCAGCAAUAUUACGCAUC | -2.52 ± 0.21 | -1.57 ± 0.17
7 | AUACAGCAAUAUUACGGCUA | 0.0244 ± 0.072 | 0.138 ± 0.082
8 | AAUAAGCAAUAUUACGGAGU | -3.06 ± 0.25 | -2.13 ± 0.32
9 | CCCCAGCAAUAUUACGUGUA | -3.17 ± 0.11 | -2.75 ± 0.13
10 | UCACAGCAAUAUUACGUUCC | -3.38 ± 0.21 | -1.47 ± 0.22
11 | GGUAAGCAAUAUUACGGCUG | -0.805 ± 0.14 | 0.356 ± 0.15
12 | UCCUAGCAAUAUUACGGACA | -2.68 ± 0.37 | -2.29 ± 0.31
13 | GCUAAGCAAUAUUACGGCUA | -0.811 ± 0.093 | -0.399 ± 0.11
14 | CUACAGCAAUAUUACGACCA | -2.7 ± 0.3 | -2.31 ± 0.35
15 | CCGGAGCAAUAUUACGUGUA | -2.99 ± 0.2 | -2.61 ± 0.25
16 | CUAAAGCAAUAUUACGGAUC | -2.3 ± 0.21 | 
17 | UACAAGCAAUAUUACGCCGA | -1.29 ± 0.1 | -0.999 ± 0.11
18 | CGUUAGCAAUAUUACGUGCC | -2.8 ± 0.31 | -1.59 ± 0.29
19 | GGCCAGCAAUAUUACGCCAU | -3.57 ± 0.33 | -2.12 ± 0.28
20 | GCCAAGCAAUAUUACGCUCG | -3.5 ± 0.2 | -1.84 ± 0.15
21 | GUGGAGCAAUAUUACGAAUG | -3.75 ± 0.4 | -1.77 ± 0.37
22 | GCUCAGCAAUAUUACGAUGU | 0.0549 ± 0.065 | -0.345 ± 0.077

Row | Sequence | self-splicing fitness (ln) (30 °C) | self-splicing fitness (ln) (37 °C)
23 | CUAAAGCAAUAUUACGAGUU | -2.84 ± 0.32 | -1.85 ± 0.26
24 | AUAUAGCAAUAUUACGAGCA | -2.32 ± 0.24 | -0.917 ± 0.18
25 | AUGUAGCAAUAUUACGGCAG | -0.715 ± 0.073 | 0.288 ± 0.11
26 | UAUGAGCAAUAUUACGCUUG | -3.32 ± 0.4 | 0.0607 ± 0.25
27 | CAUGAGCAAUAUUACGAUGC | -3.19 ± 0.17 | -1.89 ± 0.2
28 | UGCCAGCAAUAUUACGGGUG | -2.99 ± 0.13 | -2.98 ± 0.17
29 | UCACAGCAAUAUUACGAACC | -1.05 ± 0.33 | -1.68 ± 0.34
30 | CUAUAGCAAUAUUACGGGGC |  | -1.7 ± 0.33
31 | ACCGAGCAAUAUUACGCUGC | -2.73 ± 0.16 | -2.5 ± 0.23
32 | GGAAAGCAAUAUUACGUUAU | -2.24 ± 0.09 | -1.16 ± 0.12
33 | GGGAAGCAAUAUUACGCUAG | -1.73 ± 0.18 | -1.01 ± 0.2
34 | AGGUAGCAAUAUUACGGGAA | -2.69 ± 0.027 | -2.11 ± 0.038
35 | CUCAAGCAAUAUUACGUGCA | -3.43 ± 0.26 | -1.85 ± 0.19
36 | CCGUAGCAAUAUUACGACGC |  | -3.08 ± 0.38
37 | ACGUAGCAAUAUUACGCUAU | -4.59 ± 0.34 | -3.11 ± 0.35
38 | GUUCAGCAAUAUUACGUGAA | -1.32 ± 0.087 | -0.784 ± 0.11
39 | UAACAGCAAUAUUACGUGGG | -4.35 ± 0.15 | -2.75 ± 0.091
40 | ACCUAGCAAUAUUACGUCUC | -1.59 ± 0.096 | -0.658 ± 0.14
41 | UUGGAGCAAUAUUACGCAAG | -1.51 ± 0.22 | -2.65 ± 0.44
42 | CACCAGCAAUAUUACGCUUC | -4.12 ± 0.34 | -1.45 ± 0.13
43 | UGGCAGCAAUAUUACGAGUA | -1.75 ± 0.15 | -1.46 ± 0.13
